Entries after “also recorded” stand apart in the source; their conditions may differ. Positions of bridges follow the written chain, without caps; N, C: chain ends. No end group written: not given here.
How the values were obtained:
HEL cells = test: Thrombopoietin-like activity, tyrosine phosphorylation levels in HEL cells (dot blot); type: cell-based, human; conditions: culture supernatant diluted, 20 minutes, rhTPO 10 to 100 ng/mL, FIG. 41
Procedure: The thrombopoietin-like activity of the TPO-PAS dimer peptide was evaluated by quantification of tyrosine phosphorylation levels in HEL cells, a human leukemia-derived blood cell line. 200,000 HEL cells were cultured in RPMI 1640 medium without FBS (Thermo Fisher Scientific) for 24 hours and starved. The cells were stimulated for 20 minutes in RPMI 1640 medium supplemented with 10 to 100 ng/mL recombinant human TPO (rhTPO, Peprotech) or a culture supernatant containing AET-TPO1-PAS8, TPO2-PAS8, or AET-TPO2-PAS8 at a predetermined dilution factor. As a negative control, PBS (Mock group) or a supernatant expressing no peptide (Empty group) by using an empty vector was added, and stimulation was performed for 20 minutes. After removing the medium and washing the cells once with PBS, the cells were lysed by adding 100 μL of Lysis buffer 17 (R&D Systems) supplemented with Protease inhibitor cocktail (Nacalai Tesque). The lysate solution was centrifuged at 14,000 G for 5 minutes to obtain the supernatant as lysate.
APVDF membrane (Immobilon-P membrane 0.45 m, Merck) was treated with methanol for 1 minute and then with ultrapure water for 5 minutes for hydrophilic treatment. The PVDF membrane was dried, and each cell lysate solution was spotted with a 1 μL pipette and dried. The PVDF membrane was blocked with PVDF Blocking Reagent for Can Get Signal (NOF) at room temperature for 1 hour, and then Can Get Signal Solution 2 (NOF), supplemented with anti-pY antibody-[…] conjugate (Cell Signaling Technology) at 1:5000, was added, followed by an antibody reaction at 4° C. for 24 hours. The membrane was washed 3 times with TBST buffer, Luminata Crescendo Western HRP Substrate (Merck) was added, and a chemiluminescence reaction was carried out. Chemiluminescence was detected using Amersham Imager 600 (GE Healthcare). The luminescence intensity of the detected dots was quantified by ImageJ.

VEGFR [1] = target: T1, VEGFR (Homo sapiens, UniProt P35968); test: VEGF inhibitory ability, luciferase assay in VEGFR/NFAT Reporter HEK293 cells; type: cell-based; conditions: 10 ng/mL VEGF; for VEGF inhibitory activity (relative VEGF activity): Example 39, cell-free expression solution, FIGS. 71 and 72
T1 construct: host or cells: VEGFR/NFAT Reporter HEK293 cells
T1 sequence (P35968 20-1356): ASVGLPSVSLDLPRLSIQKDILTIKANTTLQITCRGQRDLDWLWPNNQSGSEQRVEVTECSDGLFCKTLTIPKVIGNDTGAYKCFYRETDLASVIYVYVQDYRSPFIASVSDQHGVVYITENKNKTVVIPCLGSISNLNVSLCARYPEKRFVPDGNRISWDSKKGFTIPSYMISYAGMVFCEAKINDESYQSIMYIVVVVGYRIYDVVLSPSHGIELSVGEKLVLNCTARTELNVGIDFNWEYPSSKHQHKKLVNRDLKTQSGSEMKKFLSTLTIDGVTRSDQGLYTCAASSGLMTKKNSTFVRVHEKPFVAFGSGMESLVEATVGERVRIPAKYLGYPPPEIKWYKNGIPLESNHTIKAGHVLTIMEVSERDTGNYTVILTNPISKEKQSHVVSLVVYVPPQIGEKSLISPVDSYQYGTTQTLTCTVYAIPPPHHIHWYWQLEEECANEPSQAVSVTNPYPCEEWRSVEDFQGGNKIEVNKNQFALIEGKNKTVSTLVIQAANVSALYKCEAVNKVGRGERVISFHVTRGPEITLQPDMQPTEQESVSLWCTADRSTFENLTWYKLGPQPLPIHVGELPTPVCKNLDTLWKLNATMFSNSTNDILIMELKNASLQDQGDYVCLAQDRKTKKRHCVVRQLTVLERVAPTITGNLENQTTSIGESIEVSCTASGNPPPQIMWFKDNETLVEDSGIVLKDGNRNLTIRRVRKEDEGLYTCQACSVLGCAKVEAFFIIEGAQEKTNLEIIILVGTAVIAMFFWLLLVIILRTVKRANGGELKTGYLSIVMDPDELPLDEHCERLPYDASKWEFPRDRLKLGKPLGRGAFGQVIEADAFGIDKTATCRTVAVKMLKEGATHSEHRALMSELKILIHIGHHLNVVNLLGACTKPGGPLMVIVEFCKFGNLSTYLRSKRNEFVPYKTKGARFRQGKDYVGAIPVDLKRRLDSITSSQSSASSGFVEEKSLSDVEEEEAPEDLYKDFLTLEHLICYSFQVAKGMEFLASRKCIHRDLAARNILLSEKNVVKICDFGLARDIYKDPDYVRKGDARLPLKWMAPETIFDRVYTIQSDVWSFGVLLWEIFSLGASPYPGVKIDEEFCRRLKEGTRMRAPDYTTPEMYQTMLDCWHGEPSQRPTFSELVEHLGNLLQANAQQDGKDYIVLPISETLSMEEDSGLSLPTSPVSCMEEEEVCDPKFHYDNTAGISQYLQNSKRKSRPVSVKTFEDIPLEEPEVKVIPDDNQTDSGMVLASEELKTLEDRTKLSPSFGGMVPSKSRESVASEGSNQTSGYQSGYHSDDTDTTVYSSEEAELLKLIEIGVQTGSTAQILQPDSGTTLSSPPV
Procedure: The VEGF inhibitory ability of the VEGFR_D2-PAS heterodimer peptide was evaluated by luciferase assay. 40,000 cell/well VEGFR/NFAT Reporter HEK293 cells (BPS Bioscience) were seeded and incubated overnight in a 5% CO2 incubator at 37° C. The cells were incubated overnight in Assay medium (MEM medium (Nacalai Tesque), 1×MEM Non-Essential Amino Acids Solution (Thermo Fisher Scientific), 1 mM Sodium Pyruvate (Nacalai Tesque), 1% Penicillin-Streptomycin (Sigma Aldrich), and 0.3% FBS (Thermo Fisher Scientific)) to starvation. […] The cells were stimulated by culturing in a 5% CO2 incubator at 37° C. for 4 hours.
One-Glo Luciferase Assay System (Promega) was used to detect the signal intensity. Medium supernatant in an amount of 50 μL was removed, 50 μL of One-Glo reagent was added, and the cells were lysed for 10 minutes at room temperature. The luminescence emitted from the cell lysate solution was detected with a Nivo plate reader (Perkin Elmer) to quantify the activation of the VEGFR-NFAT pathway, and the relative signal activity value for the sample without addition of evaluation compound was determined and used as relative receptor activity.
The VEGF inhibitory ability of the cell-free expressed VEGFR_D2-PAS heterodimer peptide was evaluated by luciferase assay. 40,000 cell/well VEGFR/NFAT Reporter HEK293 cells (BPS Bioscience) were seeded and incubated overnight in a 5% CO2 incubator at 37° C. The cells were incubated overnight in Assay medium (MEM medium (Nacalai Tesque), 1×MEM Non-Essential Amino Acids Solution (Thermo Fisher Scientific), 1 mM Sodium Pyruvate (Nacalai Tesque), 1% Penicillin-Streptomycin (Sigma Aldrich), and 0.3% FBS (Thermo Fisher Scientific)) to starvation. To the Assay medium, 100 μL of 10 ng/mL human recombinant VEGF (R&D Systems) was added, and further, MAET-VEGFR_D2-PAS16, MAET-VEGFR_D2-PAS49-b, MAET-VEGFR_D2-PAS100-b, or a cell-free expression solution containing MAET-VEGFR_D2-GS16, or a cell-free expression solution with unexpressed peptide was added at a predetermined dilution factor, and 100 μL of the Assay medium was added to the cells. The cells were stimulated by culturing in a 5% CO2 incubator at 37° C. for 4 hours.
The VEGF inhibitory ability of the VEGFR_D2-PAS heterodimer peptide linker variant was evaluated by luciferase assay. 40,000 cell/well VEGFR/NFAT Reporter HEK293 cells (BPS Bioscience) were seeded and incubated overnight in a 5% CO2 incubator at 37° C. The cells were incubated overnight in Assay medium (MEM medium (Nacalai Tesque), 1×MEM Non-Essential Amino Acids Solution (Thermo Fisher Scientific), 1 mM Sodium Pyruvate (Nacalai Tesque), 1% Penicillin-Streptomycin (Sigma Aldrich), and 0.3% FBS (Thermo Fisher Scientific)) to starvation. To the Assay medium, 10 ng/mL human recombinant VEGF (R&D Systems) was added, and further, a culture supernatant containing VEGFR_D2-PAS16, VEGFR_D2-PAS49, or VEGFR_D2-PAS100 at a predetermined concentration was added, and 100 μL of the Assay medium was added to the cells. The cells were stimulated by culturing in a 5% CO2 incubator at 37° C. for 4 hours. Note that VEGFR_D2-PAS16 was obtained according to the method described in Example 27.

[2] = target: T2, thrombopoietin receptor c-Mpl (human, UniProt P40238 26-635); test: cell-based or functional assay
T2 sequence (looked up): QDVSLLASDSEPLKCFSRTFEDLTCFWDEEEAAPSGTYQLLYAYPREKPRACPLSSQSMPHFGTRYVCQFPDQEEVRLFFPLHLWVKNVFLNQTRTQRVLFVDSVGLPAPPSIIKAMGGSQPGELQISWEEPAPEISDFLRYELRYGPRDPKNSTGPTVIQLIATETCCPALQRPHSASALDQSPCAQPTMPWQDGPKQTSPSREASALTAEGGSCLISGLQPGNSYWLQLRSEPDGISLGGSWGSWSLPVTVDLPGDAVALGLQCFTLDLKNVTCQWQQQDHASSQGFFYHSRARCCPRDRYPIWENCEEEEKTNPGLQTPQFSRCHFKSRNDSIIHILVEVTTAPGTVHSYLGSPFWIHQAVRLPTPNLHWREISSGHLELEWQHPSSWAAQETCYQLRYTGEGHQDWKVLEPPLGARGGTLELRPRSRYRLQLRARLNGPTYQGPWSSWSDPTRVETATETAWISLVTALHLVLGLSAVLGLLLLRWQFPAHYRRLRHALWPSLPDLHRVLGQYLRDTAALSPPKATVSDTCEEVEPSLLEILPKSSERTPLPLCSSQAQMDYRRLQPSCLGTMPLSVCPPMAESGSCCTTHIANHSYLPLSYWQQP

EpoR = target: T3, EpoR (UniProt P19235 25-508, limits assumed); test: cell-based or functional assay
T3 sequence (looked up): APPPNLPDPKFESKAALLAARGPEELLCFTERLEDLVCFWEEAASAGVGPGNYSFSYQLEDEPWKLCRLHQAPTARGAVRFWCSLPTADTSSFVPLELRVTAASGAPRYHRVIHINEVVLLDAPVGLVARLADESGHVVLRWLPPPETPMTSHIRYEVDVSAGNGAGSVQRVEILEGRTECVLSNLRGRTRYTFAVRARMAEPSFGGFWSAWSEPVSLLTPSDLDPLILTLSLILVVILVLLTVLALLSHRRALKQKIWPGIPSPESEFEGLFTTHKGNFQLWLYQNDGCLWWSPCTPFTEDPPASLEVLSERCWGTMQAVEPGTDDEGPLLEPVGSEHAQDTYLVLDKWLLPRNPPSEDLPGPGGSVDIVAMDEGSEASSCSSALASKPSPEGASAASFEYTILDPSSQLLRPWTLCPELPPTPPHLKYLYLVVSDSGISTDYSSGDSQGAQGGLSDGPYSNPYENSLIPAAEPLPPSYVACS

VEGFR [3] = target: VEGFR (UniProt P35968 20-1356, limits assumed); test: cell-based or functional assay
Sequence of VEGFR (UniProt P35968 20-1356, limits assumed) (P35968 20-1356 limits assumed): as the sequence (P35968 20-1356) above

Molecule: AETGGCADGPTLREWISFCGGAAPAAPAPGGCADGPTLREWISFCGG (disulfide 6-19, 32-45) [AET-TPO2-PAS8]
- increase in tyrosine phosphorylation levels compared with rhTPO (HEL cells): equal to or higher than that of rhTPO

Molecule: MAETAGPTWCEDDWYYCWLFGTAAPAAPAPAAPAAPAPVCWEDSWGGEVCWLFGT (disulfide 10-17, 40-50) [MAET-VEGFR_D2-PAS16]
- VEGF inhibitory activity (relative VEGF activity) (VEGFR [1]): higher inhibitory activity than MAET-VEGFR_D2-PAS100-b; also recorded: higher inhibitory activity than MAET-VEGFR_D2-GS16

Molecule: recombinant human TPO (from UniProt P40225 22-195) (ligand)
- relative CREB phosphorylation level (pCREB ELISA, HEL cells, 100 ng/mL rhTPO) [2]: 143%

B1: AET-EPO-PAS49 (peptide)
peptide: AETGGLYACHMGPMTWVCQPLRGAAPAAPAPAAPAAPAPAAPAAPAPAAPAAPAPAAPAAPAPAAPAAPAPAGGLYACHMGPMTWVCQPLRG
modifications: two disulfide bonds in the molecule
- EC50 (EpoR): 4.3 ng/mL

B2: AET-VEGFR_D2-PAS49 (peptide)
peptide: AETAGPTWCEDDWYYCWLFGTAAPAAPAPAAPAAPAPAAPAAPAPAAPAAPAPAAPAAPAPAAPAAPAPAVCWEDSWGGEVCWLFGT
modifications: two disulfide bonds in the molecule
- IC50 (VEGFR [3]): 12 ng/mL

Molecule: GGCADGPTLREWISFCGGAAPAAPAPGGCADGPTLREWISFCGG (disulfide 3-16, 29-42) [TPO2-PAS8]
- relative CREB phosphorylation level (pCREB ELISA, HEL cells) [2]: 136%

B3: AET-EPO-PAS100 (peptide)
peptide: AETGGLYACHMGPMTWVCQPLRGAAPAAPAPAAPAAPAPAAPAAPAPAAPAAPAPAAPAAPAPAAPAAPAPAAPAAPAPAAPAAPAPAAPAAPAPAAPAAPAPAAPAAPAPAAPAAPAPAAPAGGLYACHMGPMTWVCQPLRG
modifications: two disulfide bonds in the molecule
- EC50 (EpoR): 6.6 ng/mL

B4: TPO2-PAS49 (peptide)
peptide: GGCADGPTLREWISFCGGAAPAAPAPAAPAAPAPAAPAAPAPAAPAAPAPAAPAAPAPAAPAAPAPAGGCADGPTLREWISFCGG
modifications: two disulfide bonds in the molecule
- relative CREB phosphorylation level (pCREB ELISA, HEL cells) [2]: 131%

B5: AET-VEGFR_D2-PAS100 (peptide)
peptide: AETAGPTWCEDDWYYCWLFGTAAPAAPAPAAPAAPAPAAPAAPAPAAPAAPAPAAPAAPAPAAPAAPAPAAPAAPAPAAPAAPAPAAPAAPAPAAPAAPAPAAPAAPAPAAPAAPAPAAPAVCWEDSWGGEVCWLFGT
modifications: two disulfide bonds in the molecule
- IC50 (VEGFR [1]; Example 46, culture supernatant, 4 hours, Table 8): 86 ng/mL
- IC50 (VEGFR [3]): 86 ng/mL

B6: AET-VEGFR_D2-GS16 (peptide)
peptide: AETAGPTWCEDDWYYCWLFGTGGGGSGGGGSGGGGSGVCWEDSWGGEVCWLFGT
modifications: disulfide 9-16, 39-49
- IC50 (VEGFR [3]): 16 ng/mL

Molecule: GGCADGPTLREWISFCGGGGGGSGGGGGCADGPTLREWISFCGG (disulfide 3-16, 29-42) [TPO2-GS8]
- relative CREB phosphorylation level (pCREB ELISA, HEL cells) [2]: 121%

B7: MAETAGPTWCEDDWYYCWLFGTSAPSPSSAPASASAPASPASASASASPASSPASASSASPAASSASPASSVCWEDSWGGEVCWLFGT (peptide)
chain: MAETAGPTWCEDDWYYCWLFGTSAPSPSSAPASASAPASPASASASASPASSPASASSASPAASSASPASSVCWEDSWGGEVCWLFGT
modifications: MAET-VEGFR_D2-PAS49-b; DISULFID (10)..(17) Disulfid bridge between Cys-10 and Cys-17; DISULFID (73)..(83) Disulfid bridge between Cys-73 and Cys-83
- VEGF inhibitory activity (relative VEGF activity) (VEGFR [1]): higher inhibitory activity than MAET-VEGFR_D2-PAS100-b

B8: TPO2-PAS100 (peptide)
peptide: GGCADGPTLREWISFCGGAAPAAPAPAAPAAPAPAAPAAPAPAAPAAPAPAAPAAPAPAAPAAPAPAAPAAPAPAAPAAPAPAAPAAPAPAAPAAPAPAAPAAPAPAAPAAPAPAAPAGGCADGPTLREWISFCGG
modifications: two disulfide bonds in the molecule
- relative CREB phosphorylation level (pCREB ELISA, HEL cells) [2]: 112%

B9: AET-VEGFR_D2-PAS16 (peptide)
peptide: AETAGPTWCEDDWYYCWLFGTAAPAAPAPAAPAAPAPVCWEDSWGGEVCWLFGT
modifications: disulfide 9-16, 39-49
- IC50 (VEGFR [3]): 1.5 ng/mL

B10: AET-EPO-GS8 (peptide)
peptide: AETGGLYACHMGPMTWVCQPLRGGGGGSGGGGGLYACHMGPMTWVCQPLRG
modifications: disulfide 9-18, 37-46
- EC50 (EpoR): 0.53 ng/mL

B11: AET-EPO-GS22 (peptide)
peptide: AETGGLYACHMGPMTWVCQPLRGGGGGSGGGGSGGGGSGGGGSGGGGLYACHMGPMTWVCQPLRG
modifications: disulfide 9-18, 51-60
- EC50 (EpoR): 1.3 ng/mL

From US20220396819A1, “METHOD FOR PRODUCING PEPTIDE HAVING PHYSIOLOGICAL ACTIVITY, AND PEPTIDE COMPRISING SHORT LINKER” (priority 2019, published 2022)
